The target in this experiment is recombinant human HIS-tagged CFP (human, UniProt P27918 28-469). In words: SPR.
recombinant human HIS-tagged CFP, sequence (P27918 28-469): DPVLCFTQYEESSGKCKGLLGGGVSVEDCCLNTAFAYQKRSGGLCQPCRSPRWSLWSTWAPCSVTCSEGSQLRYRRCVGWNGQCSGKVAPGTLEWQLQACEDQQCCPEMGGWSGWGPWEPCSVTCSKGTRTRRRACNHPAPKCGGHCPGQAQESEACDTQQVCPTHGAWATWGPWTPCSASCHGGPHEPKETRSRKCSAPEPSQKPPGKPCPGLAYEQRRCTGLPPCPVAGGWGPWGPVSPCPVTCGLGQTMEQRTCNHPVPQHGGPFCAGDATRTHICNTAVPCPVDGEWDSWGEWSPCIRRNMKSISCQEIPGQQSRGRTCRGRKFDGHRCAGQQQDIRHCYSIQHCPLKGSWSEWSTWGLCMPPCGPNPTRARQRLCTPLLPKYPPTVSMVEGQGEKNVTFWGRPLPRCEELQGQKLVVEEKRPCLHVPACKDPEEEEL

B1: mouse NKp46-Fc (Fc fusion)
chain: QRINTEKETLPKPIIWAKPSIMVTNGNSVNIWCQGAQSASEYQLYFEGSFFALERPKPSRSMNKVRFFISQMTSHTAGIYTCFYQSGELWSKSSNPLKLVVTGLYDTPNLWVYPQPEVTLGENVTFFCQLKTATSKFFLLKERGSNHIQNKYGNIQAEFPMGPVTRAHRGTYRCFGSYNDYAWSFPSEPVTLLITGGVENSSLAPTDPTSSLDYWEFDLSTNESGLQKDSAFWDHTTQN
Turning to B1, the binding result is given as “binds”.

Source of the values: article PMC5419422 (Science immunology, 2017).
